These results are taken from the supplement of paper PMC9112550, “Optimization of the antimicrobial peptide Bac7 by deep mutational scanning” (BMC Biology, 2022).
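Further: peptides expressed intracellularly from a pBAD plasmid library in pooled LB shake-flask culture, induced with 0.3% L-arabinose, DNA abundance read by NGS, three biological replicates, DESeq2 with apeglm shrinkage.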

The test system of the data set is Escherichia coli TOP10. The data set is described as follows: shrunken log2 fold change of peptide-encoding DNA abundance (4.5 h post-induction vs induction); higher = less antimicrobial activity (less host growth inhibition). As to conditions: time post-induction: 4.5 h; library: site-saturation at positions 5, 18, 19, 20.
Regarding RRIRPRPPRLPRPRPRPWSNPRP, the “shrunken log2 fold change” value is -0.52.

For the sequence RRIRVRPPRLPRPRPRPWNPPRP, the “shrunken log2 fold change” value was -0.0803.

With RRIRSRPPRLPRPRPRPDIFPRP, the “shrunken log2 fold change” value was -0.135.

Take RRIRNRPPRLPRPRPRPPLRPRP: the “shrunken log2 fold change” value came to 0.138.

For the sequence RRIRNRPPRLPRPRPRPWIGPRP, the “shrunken log2 fold change” value was -0.128.

As for RRIRYRPPRLPRPRPRPHVCPRP, the “shrunken log2 fold change” value was -0.358.

Consider RRIRIRPPRLPRPRPRPVTTPRP, for which the “shrunken log2 fold change” value was -0.0229.

RRIRYRPPRLPRPRPRPRMWPRP: the “shrunken log2 fold change” value stood at 0.0356.

Take RRIRWRPPRLPRPRPRPDNPPRP: the “shrunken log2 fold change” value was determined as 0.208.

As for RRIRDRPPRLPRPRPRPYLFPRP, the “shrunken log2 fold change” value worked out at 1.15.

RRIRYRPPRLPRPRPRPSRNPRP: the “shrunken log2 fold change” value is -0.12.

As for RRIRQRPPRLPRPRPRPSHVPRP, the “shrunken log2 fold change” value was -0.367.

RRIRYRPPRLPRPRPRPPGIPRP: the “shrunken log2 fold change” value was determined as 0.0348.

For the sequence RRIRYRPPRLPRPRPRPAHAPRP, the “shrunken log2 fold change” value was found to be 0.154.

For RRIRQRPPRLPRPRPRPWQMPRP, the “shrunken log2 fold change” value was -0.0417.

Take RRIRIRPPRLPRPRPRPEGHPRP: the “shrunken log2 fold change” value was -0.00139.

Consider RRIRLRPPRLPRPRPRPNENPRP, for which the “shrunken log2 fold change” value was -0.189.

With RRIRARPPRLPRPRPRPHHMPRP, the “shrunken log2 fold change” value is -0.715.

For RRIRARPPRLPRPRPRPRLKPRP, the “shrunken log2 fold change” value was found to be 0.547.

For RRIRYRPPRLPRPRPRPCPNPRP, the “shrunken log2 fold change” value was found to be 0.626.

As to RRIRDRPPRLPRPRPRPDMDPRP, the “shrunken log2 fold change” value worked out at 0.2.

Consider RRIRMRPPRLPRPRPRPHTEPRP, for which the “shrunken log2 fold change” value came out at 0.191.

With RRIRKRPPRLPRPRPRPPIEPRP, the “shrunken log2 fold change” value is 0.223.

With RRIRWRPPRLPRPRPRPLCQPRP, the “shrunken log2 fold change” value came to 0.0938.

As for RRIRHRPPRLPRPRPRPKFCPRP, the “shrunken log2 fold change” value is -0.132.

Take RRIRCRPPRLPRPRPRPRPNPRP: the “shrunken log2 fold change” value was 0.478.

On to RRIRVRPPRLPRPRPRPGMTPRP, for which the “shrunken log2 fold change” value was determined as 0.177.

For RRIRSRPPRLPRPRPRPYYSPRP, the “shrunken log2 fold change” value was -0.318.

For RRIRIRPPRLPRPRPRPVRTPRP, the “shrunken log2 fold change” value was -0.0633.

In the case of RRIRRRPPRLPRPRPRPEASPRP, the “shrunken log2 fold change” value was found to be 0.75.

In the case of RRIRYRPPRLPRPRPRPQHKPRP, the “shrunken log2 fold change” value is -0.547.

For RRIRWRPPRLPRPRPRPGPRPRP, the “shrunken log2 fold change” value came to 0.514.

Take RRIRTRPPRLPRPRPRPCAWPRP: the “shrunken log2 fold change” value is -0.277.

Turning to RRIRCRPPRLPRPRPRPVHIPRP, the “shrunken log2 fold change” value was -0.831.

With RRIRYRPPRLPRPRPRPDWHPRP, the “shrunken log2 fold change” value was -0.32.

For RRIRFRPPRLPRPRPRPIHAPRP, the “shrunken log2 fold change” value was -0.0507.

On to RRIRNRPPRLPRPRPRPEFRPRP, for which the “shrunken log2 fold change” value is -0.107.

As to RRIRERPPRLPRPRPRPVMRPRP, the “shrunken log2 fold change” value stood at 0.453.

In the case of RRIRSRPPRLPRPRPRPQFWPRP, the “shrunken log2 fold change” value is 0.268.

Turning to RRIRIRPPRLPRPRPRPSKFPRP, the “shrunken log2 fold change” value was -0.245.

For the sequence RRIRFRPPRLPRPRPRPCAGPRP, the “shrunken log2 fold change” value is -0.177.

Regarding RRIRKRPPRLPRPRPRPHCEPRP, the “shrunken log2 fold change” value was found to be 0.177.

For the sequence RRIRIRPPRLPRPRPRPMEKPRP, the “shrunken log2 fold change” value is -0.229.

Turning to RRIRRRPPRLPRPRPRPKHYPRP, the “shrunken log2 fold change” value worked out at 0.227.

Consider RRIRQRPPRLPRPRPRPGRSPRP, for which the “shrunken log2 fold change” value turned out to be 0.105.

As to RRIRCRPPRLPRPRPRPQMFPRP, the “shrunken log2 fold change” value is -0.155.

Take RRIRFRPPRLPRPRPRPMYVPRP: the “shrunken log2 fold change” value was -1.63.

Take RRIRMRPPRLPRPRPRPYTIPRP: the “shrunken log2 fold change” value is 0.0978.

Regarding RRIRIRPPRLPRPRPRPTAKPRP, the “shrunken log2 fold change” value is -0.184.

Take RRIRARPPRLPRPRPRPAFHPRP: the “shrunken log2 fold change” value is -0.115.
